Laboratory results: PMC10681732

T1: RIG-I CTD WT (crystal) (human, UniProt O95786 802-925)
T1 sequence: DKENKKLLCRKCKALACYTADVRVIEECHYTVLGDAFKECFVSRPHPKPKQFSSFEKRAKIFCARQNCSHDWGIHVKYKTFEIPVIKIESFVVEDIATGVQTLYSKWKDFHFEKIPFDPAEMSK

T2: RIG-I CTD I875A (crystal) (human, UniProt O95786 802-925, I875A)
T2 sequence: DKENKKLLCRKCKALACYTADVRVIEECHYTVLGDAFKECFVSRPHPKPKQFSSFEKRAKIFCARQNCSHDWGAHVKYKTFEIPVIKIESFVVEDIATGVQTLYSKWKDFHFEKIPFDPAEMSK


How the values were obtained:
RIG-I CTD WT (crystal) = biological target: T1, RIG-I CTD WT (crystal); experiment: X-ray crystallography
[1] = biological target: T2, RIG-I CTD I875A (crystal); experiment: X-ray crystallography

Binder | binding result (RIG-I CTD WT (crystal)) | binding result [1]
OH-dsRNA (crystallization) (dsRNA) RNA 1: GACGCUAGCGUC RNA 2: GACGCUAGCGUC | binds | 
p-dsRNA (crystallization) (dsRNA, 5'-monophosphate) RNA 1: GACGCUAGCGUC RNA 2: GACGCUAGCGUC |  | binds
